Test [1] concerns the target T1, human CAPRIN-1 protein on human cancer cells and in human cancer tissues (human, UniProt Q14444 2-709).
T1 construct: whole, on cells; Endogenous protein of the cell lines and tissue arrays; also called CAPRIN-1 protein expressed on the cell membrane surfaces of human cancer cell lines
T1 sequence (looked up): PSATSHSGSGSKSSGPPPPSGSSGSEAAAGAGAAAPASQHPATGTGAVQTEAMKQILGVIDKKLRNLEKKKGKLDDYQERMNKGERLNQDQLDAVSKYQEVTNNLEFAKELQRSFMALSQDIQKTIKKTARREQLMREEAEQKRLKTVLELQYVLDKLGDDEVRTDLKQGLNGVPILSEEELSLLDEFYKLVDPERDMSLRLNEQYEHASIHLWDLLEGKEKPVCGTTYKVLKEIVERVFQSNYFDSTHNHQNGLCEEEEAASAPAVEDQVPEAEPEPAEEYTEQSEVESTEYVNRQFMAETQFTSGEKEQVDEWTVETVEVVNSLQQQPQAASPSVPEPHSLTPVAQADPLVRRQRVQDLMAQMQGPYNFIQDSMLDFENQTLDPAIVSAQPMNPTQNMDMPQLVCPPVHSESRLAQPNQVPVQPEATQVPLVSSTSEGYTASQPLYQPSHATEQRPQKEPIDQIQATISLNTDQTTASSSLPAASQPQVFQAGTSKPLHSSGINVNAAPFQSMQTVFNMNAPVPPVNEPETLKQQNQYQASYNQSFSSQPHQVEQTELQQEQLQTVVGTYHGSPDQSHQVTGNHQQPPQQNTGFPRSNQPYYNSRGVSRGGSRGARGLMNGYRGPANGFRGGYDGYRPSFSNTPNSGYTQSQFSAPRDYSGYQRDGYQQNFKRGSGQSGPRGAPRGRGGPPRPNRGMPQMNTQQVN
As to the kind of experiment: immunohistochemical staining of paraffin-embedded human cancer tissue arrays. On the procedure:
After 3 hours of treatment of the human breast cancer tissue array at 60° C., the array was placed in a staining bottle filled with xylene, followed by xylene replacement being repeated three times every 5 minutes. Next, a similar procedure was performed with ethanol and PBS-T instead of xylene. The human breast cancer tissue array was placed in a staining bottle filled with 10 mM citrate buffer (pH 6.0) containing 0.05% Tween20. After 5 minutes of treatment at 125° C., the array was left to stand at room temperature for 40 minutes or more. Excess water around the sections was removed with Kimwipes, the sections were circled with a DAKOPEN, and Peroxidase Block (DAKO) was added dropwise in appropriate amounts. After left to stand at room temperature for 5 minutes, the array was placed in a staining bottle filled with PBS-T, followed by PBS-T replacement being repeated three times every 5 minutes. As a blocking solution, a PBS-T solution containing 10% FBS was placed on the array, and then the array was left to stand in a moist chamber at room temperature for 1 hour. Next, a solution of the monoclonal antibody #1 of 10 μg/ml adjusted with a PBS-T solution containing 5% FBS, which reacts with cancer cell surfaces and had been prepared in Example 4, was placed on, and the array was left to stand overnight in a moist chamber at 4° C. […]

In test [2] the target is T2, recombinant human CAPRIN-1 protein having the amino acid sequence represented by SEQ ID NO: 2 (human, UniProt Q14444 2-709).
T2 construct: The His-tag was cleaved off with enterokinase; also called antigen protein (human CAPRIN-1)
T2 sequence: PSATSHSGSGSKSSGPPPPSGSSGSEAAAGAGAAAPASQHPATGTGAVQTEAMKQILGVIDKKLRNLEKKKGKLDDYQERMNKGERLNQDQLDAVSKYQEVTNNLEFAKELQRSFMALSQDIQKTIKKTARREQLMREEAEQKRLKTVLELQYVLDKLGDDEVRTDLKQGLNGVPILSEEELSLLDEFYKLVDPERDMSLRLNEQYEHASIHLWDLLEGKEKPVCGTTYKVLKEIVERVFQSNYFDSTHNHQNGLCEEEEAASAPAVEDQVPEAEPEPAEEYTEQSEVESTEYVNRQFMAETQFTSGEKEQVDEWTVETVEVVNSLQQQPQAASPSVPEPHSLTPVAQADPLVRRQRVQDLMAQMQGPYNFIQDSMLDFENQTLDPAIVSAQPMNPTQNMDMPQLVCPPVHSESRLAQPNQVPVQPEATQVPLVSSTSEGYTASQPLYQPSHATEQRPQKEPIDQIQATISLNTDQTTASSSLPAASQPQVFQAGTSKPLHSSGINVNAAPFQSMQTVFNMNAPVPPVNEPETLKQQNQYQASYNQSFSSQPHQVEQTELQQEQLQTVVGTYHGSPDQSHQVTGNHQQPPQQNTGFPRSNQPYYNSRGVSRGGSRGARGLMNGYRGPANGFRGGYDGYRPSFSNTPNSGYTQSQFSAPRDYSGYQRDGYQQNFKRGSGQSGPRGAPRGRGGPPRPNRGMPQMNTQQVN
In words: ELISA; CAPRIN-1 protein coated at 1 ug/ml, hybridoma culture supernatant, HRP anti-chicken IgY. The protocol: The thus selected hybridomas were added to a 96-well plate at 0.5 cells per well and then cultured. After 1 week, hybridomas that had formed single colonies in wells were observed. These cells in the wells were further cultured, and then hybridomas were selected using as a marker the binding affinity of antibodies produced by the cloned hybridomas to the CAPRIN-1 protein. The CAPRIN-1 protein solution (1 μg/ml) prepared in Example 2 was added to a 96-well plate at 100 μl per well, and then left to stand at 4° C. for 18 hours. Each well was washed with PBS-T three times, 400 μl of a 0.5% BSA solution was added per well, and then the resultant was left to stand at room temperature for 3 hours. The solution was removed, and then the wells were washed three times with 400 μl of PBS-T per well. 100 μl of each culture supernatant of the above-obtained hybridomas was added per well, and then the plate was left to stand at room temperature for 2 hours. After washing each well three times with PBS-T, 100 μl of an HRP-labeled anti-chicken IgY antibody (SIGMA) diluted 5000-fold with PBS was added per well and then left to stand at room temperature for 1 hour. […] After color development, 100 μl of 1N sulfuric acid was added per well to stop the reaction and then absorbances at 450 nm and 595 nm were measured using an absorption spectrometer. […]
For orientation: In an ELISA, binding on a coated surface is turned into a signal by an enzyme label.

In test [3] the target is T1, human CAPRIN-1 protein on human cancer …. In words: flow cytometry on MDA-MB-231V human breast cancer cells, hybridoma culture supernatant, FITC anti-chicken IgG. The protocol: Next, of those monoclonal antibodies, antibodies reactive with the cell surfaces of breast cancer cells expressing CAPRIN-1 were selected. Specifically, 5×10⁵ cells of the human breast cancer cell line MDA-MB-231V were subjected to centrifugation in a 1.5-ml microcentrifuge tube, and 100 μl of the culture supernatant of each of the above hybridomas was added to the tube, and then the tube was left to stand on ice for 1 hour. After washing with PBS, an FITC-labeled goat anti-chicken IgG (H+L) antibody (SouthernBiotech) diluted 30-fold with PBS containing 0.1% FBS was added, and then the resultant was left to stand on ice for 1 hour. After washing with PBS, fluorescence intensity was measured using a FACS caliber (Becton, Dickinson and Company). Meanwhile, procedures similar to the above were performed for medium for culturing hybridomas, so that a control sample was obtained.
On the technique in general: Flow cytometry measures light scatter and fluorescence of single cells or particles in a stream.

B1: monoclonal antibody #1 prepared in Example 4 (antibody, V domains shown)
VH: AVTLDESGGGLQTPGGGLSLVCKASGFTFSSFDMGWVRQAPGKGLEFVAQINDAGSRTWYATAVKGRATISRDNGQTTVRLQLNNLRAEDTGTYYCTRGSGYVGAGAIDAWGHGTEVIVS
VL: AALTQPSSVSANPGETVKITCSGGSGYYGWYQQQKSPGSAPVTVIYQNDKRPSDIPSRFSGSGSGSTNTLTITGVQAEDEAVYFCGRYDSTDSGIFGAGTTLTVL
notes: also called anti-CAPRIN-1 monoclonal antibody
For B1, the binding result in test [1] is listed as “binds”.

B2: chicken monoclonal antibody #1 (antibody, V domains shown)
VH: AVTLDESGGGLQTPGGGLSLVCKASGFTFSSFDMGWVRQAPGKGLEFVAQINDAGSRTWYATAVKGRATISRDNGQTTVRLQLNNLRAEDTGTYYCTRGSGYVGAGAIDAWGHGTEVIVS
VL: AALTQPSSVSANPGETVKITCSGGSGYYGWYQQQKSPGSAPVTVIYQNDKRPSDIPSRFSGSGSGSTNTLTITGVQAEDEAVYFCGRYDSTDSGIFGAGTTLTVL
notes: Chicken hybridoma antibody tested as culture supernatant and detected with anti-chicken IgY/IgG secondary antibodies; the chicken constant regions are not; also called anti-CAPRIN-1 monoclonal antibody #1
For B2, the binding result in test [2] and in test [3] was “binds” throughout.
